B1: D028 (antibody, V domains shown)
VH: QVQLVQSGAEVKKPGASVKVSCKASGYTFISYYVHWVRQAPGQGLEWMGIINPSGGSTSYTQKFQGRVTMTRDTSTSTVYMELSSLRFEDTAVYYCATEGGMITENSSLHWGQGTLVTVSS
VL: DIQMTQSPSTLSASVGDRVTITCRASQSISSWLAWYQQKPGKAPKLLIYKASSLESGVPSRFSGSGSGTEFTLAISSLQPDEFATYYCQQYNSYPWTFGQGTKVEIK
B2: D132 (antibody, V domains shown)
VH: EVQLVESGGGLVQPGRSLRLSCAASGFTFDDYAMHWVRQAPGKGLEWVSGISWNSGSIGYADSVKGRFTISRDNAKNSLYLQMNSLRNDDTALYYCAKGRIGGNYYLLDYWGQGTLVTVSS
VL: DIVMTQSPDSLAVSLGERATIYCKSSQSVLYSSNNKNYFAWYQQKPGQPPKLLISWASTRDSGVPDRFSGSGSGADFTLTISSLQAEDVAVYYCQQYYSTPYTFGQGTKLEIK
B3: D052 (antibody, V domains shown)
VH: EVQLVESGGGLVQPGGSLRLSCAASGFTFSSYDMHWVRQATGKGLEWVSAIGTAGDTYYPGSVKGRFTISRENAKNSLYLQMNSLRAGDTAVYYCARVGYSLYGDYKSYWYFDLWGRGTLVTVSS
VL: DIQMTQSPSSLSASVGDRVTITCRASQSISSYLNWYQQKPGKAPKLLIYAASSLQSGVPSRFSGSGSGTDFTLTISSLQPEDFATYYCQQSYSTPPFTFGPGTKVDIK
B4: D163 (antibody, V domains shown)
VH: QVQLVQSGAEVKKPGASVKVSCKASGYTFTSYYMHWVRQAPGQGLEWMGIINPSGGSTSYAQKFQGRVTMTRDTSTSTVYMELSSLRSEDTAVYYCARDFSLIPATAMVLDYWGQGTLVTVSS
VL: DIQMTQSPVSLSASVGDRVTITCRASQSISSWLAWYQQKPGKAPKLLIYKASSLESGVPSRFSGSGSGTEFTLTISSLQPDDFATYYCQQYNSYASFGQGTKVEIK
B5: D160 (antibody, V domains shown)
VH: QVQLVQSGAEVKKPGASVKVSCKASGYTFTTYGFSWVRQAPGQGLEWMGWISGYNGNTHYAQKVQGRVTMTTDTSTTTAYMELRSLTYDDTAVYYCARAGDDEANAFDIWGQGTMVTVSS
VL: DIQMTQSPSTLSASVGDRVTITCRASQTISIWLAWYQQKPGKAPKLLIYKASKIQSGVPSRFSGSESGTEFTLTISSLQPDDFATYYCQQYNSYPLTFGGGTKVESK
B6: D016 (antibody, V domains shown)
VH: EVQLVESGGGLVQPGRSLRLSCAASGFTFDDYAMHWVRQAPGKGLEWVSGISWNSGSIGYADSVKGRFTISRDNAKNSLYLQMNSLRAEDMALYYCAKDAGIAAVNWYFDLWGRGTLVTVSS
VL: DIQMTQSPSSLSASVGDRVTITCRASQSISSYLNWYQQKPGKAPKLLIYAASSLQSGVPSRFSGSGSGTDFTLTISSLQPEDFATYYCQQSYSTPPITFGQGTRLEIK
B7: D035 (antibody, V domains shown)
VH: EVQLVESGGGLVQPGRSLRLSCAASGFTFDDYAMHWVRQAPGKGLEWVSGISWNSGSIGYADSVKGRFTISRDNAKNSLYLQMNSLRAEDTALYYCAKDTVAGLPYWYFDLWGRGTLVTVSS
VL: not shown
B8: C2691 (antibody, V domains shown)
VH: EVQLVESGGGLVQPGRSLRLSCAASGFTFDDYAMHWVRQAPGKGLEWVSGISWNSGSIGYADSVKGRFTISRDNAKNSLYLQMNSLRAEDTALYYCAKDNRLDTMVRGGRVDAFDIWGQGTMVTVSS
VL: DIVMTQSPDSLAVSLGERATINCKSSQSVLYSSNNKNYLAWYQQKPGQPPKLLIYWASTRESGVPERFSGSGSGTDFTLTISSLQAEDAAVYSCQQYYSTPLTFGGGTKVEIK
B9: D168 (antibody, V domains shown)
VH: EVQLVESGGGLVKPGGSLRLSCAASGFTFSSYSMNWVRQAPGKGLEWVSSISSSSSYIYYADSVKGRFTISRDNAKNSLYLQMNSLRAEDTAVYYCARDLGTAIVYVREKYYYGMDVWGQGTTVTVSS
VL: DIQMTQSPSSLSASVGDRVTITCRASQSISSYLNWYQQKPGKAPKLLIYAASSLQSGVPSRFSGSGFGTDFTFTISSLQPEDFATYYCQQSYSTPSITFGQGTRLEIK
B10: D143 (antibody, V domains shown)
VH: EVQLVESGGGLVQPGGSLRLSCAASGFTFSSYSMNWVRQAPGKGLEWVSYISSSSSTIYYADSVKGRFTISRDNAKNSLYLQMNSLRDEDTAVYYCASHYGAPTSYYYYGMDVWGQGTTVTVSS
VL: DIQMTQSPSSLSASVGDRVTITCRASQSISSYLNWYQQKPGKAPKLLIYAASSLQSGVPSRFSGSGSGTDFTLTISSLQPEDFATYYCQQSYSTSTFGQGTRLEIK
B11: D055 (antibody, V domains shown)
VH: EVQLVESGGGLVQPGGSLRLSCAASGFTFSSYDMHWVRQATGKGLEWVSAIGTAGDTYYPGSVKGRFTISRENAKNSLYLQMNSLRAGDTAVYYCARGAMVRGVIMVFDYWGQGTLVTVSS
VL: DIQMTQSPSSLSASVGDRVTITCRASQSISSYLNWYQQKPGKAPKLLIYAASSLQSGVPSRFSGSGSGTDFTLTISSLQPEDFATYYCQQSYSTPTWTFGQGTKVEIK
B12: D071 (antibody, V domains shown)
VH: EVQLVESGGGLVQPGRSLRLSCTASGFTFGDYAMSWFRQAPGKGLEWLGFIKSKSYGGTTEYAASVKGRFTISREDSKSIAYLQMNSLKTEDTAVYYCTRTIFGVVHFDYWGQGTLVTVSS
VL: SYVLTQPPSVSVAPGKTARITCERNNIGSKSVHWYQQKPGRAPVLVIYYDSDRPSGIPERFSGSNSENTATLTISRVEAGDEADYYCQVWNSSSDHPVFGGGTKLTVL
B13: D033 (antibody, V domains shown)
VH: QVQLVESGGGVVQPGRSLRLSCAASGFTFSYYAMHWVRQAPGKGLEWVAVISYDGINKYYADSVKGRFTFSRDNSKNTLYLQMNSLSAEDTAVYYCARPYCGGDCYRAPDYWGQGTLVTVSS
VL: QSVLTQEPSLTVSPGGTVTLTCGSSTGAVTSSHYPYWFQQKPGQVPRTLIYDTSNKHSWTPARFSGSLLGGKAALTLSGAQPEDEADYYCLLSYSGVRRVFGGGTKLTVL
B14: D023 (antibody, V domains shown)
VH: EVQLVQSGAEVKKPGESLKISCKGSGYSFTSYWIGWVRQMPGKGLEWMGIIYPGDSDTRYSPSFQGQVTISADKSISTAYLQWSSLKASDTAMYYCAISYSGSYSGAFDIWGQGTMVTVSS
VL: not shown
B15: D182 (antibody, V domains shown)
VH: QVQLVESGGGVVQPGRSLRLSCAASGFTFSSYGMHWVRQAPGKGLEWVAVISYDGSNKYYADSVKGRFTISRDNSKNTLYLQMNSLRAEDTAVYYCAKATVLMVYAGFDYWGQGTLVTVSS
VL: NFMLTQPHSVSESPGKTVTISCTGSSGSIASNYVQWYQQRPGSAPTTVIYEDNQRPSGVPDRFSGSIDSSSNSASLTISGLKTEDEADYYCQSYDSSNRWVFGGGTKLTVL
B16: D072 (antibody, V domains shown)
VH: QVQLQQWGAGLLKPSETLSLTCAVYGGSFSGHYWSWIRQSPGKGLEWIGEINHSGDTNYNASLKSRVTISVDTSKNQFSLQMTSVTAADTAVYYCARRRGIVLMRAVDVWGKGTTVTVSS
VL: EIVMTQSPATLSLSPGERATLSCRASQSVSNNYFSWYQQKPGQAPRLLIYGASARATGIPARFSGSGSGTEFTLTISSLQPEDIALYFCQQDFHPYTFGQGTKLEIK
B17: D105 (antibody, V domains shown)
VH: QVQLQQWGAGLLKPSETLSLTCAVFGGSFSGYYWSWIRQPPGKGLEWIGEINHSGSTNYNPSLKSRVTLSVDTSKNQFSLELSSVTAADTAVYYCARVGPILFDYWGQGTLVTVSS
VL: QFVLTQPPSVSAAPGQKVTISCSGSSSNIGNNYVSWFQQLPGTAPKLLIYDNNMRPSRIPDRFSGSKSGTSATLGITGLQTGDEADYYCGTWDSSLSSVVFGGGTKLTVL
B18: D161 (antibody, V domains shown)
VH: EVQLLESGGGLVQPGGSLRLSCAASGFTFSSYAMSWVRQAPGKGLEWVSAISGSGGSTSYADSVKGRFTISRDNSKNTLYLQMNSLRVEDTAVYYCAKGPRVTTEYFEYWGQGTLVTVSS
VL: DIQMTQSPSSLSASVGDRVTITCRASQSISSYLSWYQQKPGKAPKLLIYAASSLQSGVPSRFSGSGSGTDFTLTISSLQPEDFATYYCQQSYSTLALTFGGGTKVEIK
B19: C2729 (antibody, V domains shown)
VH: QLQLQESGPGLVKPSETLSLTCTVSGGSISSSSYYWGWIRQPPGKGLEWIGSIYYSGSTYYNPSLKSRVTISVDTSKNQFSLKLSSVTAADTAVYYCARRWIQLWSGFDPWGQGTLVTVSS
VL: DIQLTQSPSFLSASVGDRVTITCRASQGISSYLAWYQQKPGKAPKLLIYAASTLQSGVPSRFSGSGSGTEFTLTISSLQPEDFATYYCQQLNSYSITFGQGTRLEIK
B20: D123 (antibody, V domains shown)
VH: EVQLVESGGGLVQPGRSLRLSCAASGFIFDDYAMHWVRQVPGKGLEWVSGISWNGGIIGQADSVKGRFTISRDNAKNSLYLQMNNLRAEDTALYFCTKDVGPGSPNYFDSWGQGTLVTVSS
VL: DIQMTQSPSTLSASVGDRVTITCRASQSISSWLAWYQQKPGKAPKFLIYKTSNLENGVPSRFSGSGSGTEFTLTISSLQPDDFATYFCQEYITNSRTFGQGTRLEIK
B21: C2694 (antibody, V domains shown)
VH: EVQLVESGGGLVQPGRSLRLSCAASGFTFDDYAMHWVRQAPGKGLEWVSGISWNSGSIGYADSVKGRFTISRDNAKNSLYLQMNSLRAEDTALYYCAKDSLLWYDSSGYYHYYYYGMDVWGQGTTVTVSS
VL: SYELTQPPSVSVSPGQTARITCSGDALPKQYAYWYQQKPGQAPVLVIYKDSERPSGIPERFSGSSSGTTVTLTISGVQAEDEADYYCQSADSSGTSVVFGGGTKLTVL
B22: D097 (antibody, V domains shown)
VH: EVQLVQSGAEVKKPGESLKISCKGSGYSFTSYWIGWVRQMPGKGLEWMGIIYPGDSDTRYSPSFQGQVTISADKSISTAYLQWSSLKASDTAMYYCARLGDAGAFDIWGQGTMVTVSS
VL: QSVLTQPPSVSGAPGQRVTISCTGSSSNIGAGYDVHWYQQLPGTAPKLLIYGNSNRPSGVPDRFSGSKSGTSASLAITGLQAEDEADYYCQSYDSSLSGSKVFGGGTKLTVL
B23: D010 (antibody, V domains shown)
VH: EVQLVESGGGLVQPGRSLRLSCAAFGFTFDDYAMHWVRQAPGKGLEWVSGISWNSGSIGYADSVKGRFTISRDNAKNSLYLQMNSLRAEDTALYYCAKDITFRDGYPGAVDYWGQGTLVTVSS
VL: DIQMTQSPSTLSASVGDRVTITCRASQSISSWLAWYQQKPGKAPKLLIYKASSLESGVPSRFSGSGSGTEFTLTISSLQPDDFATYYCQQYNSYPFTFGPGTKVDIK
B24: D142 (antibody, V domains shown)
VH: QVQLVESGGGVVQPGRSLRLSCAASGFTFSSYGMHWVRQAPGKGLEWVAVISYDGSNKYYADSVKGRFTISRDNSKNTLYLQMNSLRAEDTAVYYCAKKPTMYYYDSSGYYYFDYWGQGTLVTVSS
VL: QFVLTQPPSVSGAPGQRVTISCTGSSSNIGAGYDVHWYQQLPGTAPKLLIYGNSNRPSGVPDRFSGSKSGTSASLAITGLQAEDEADYYCQSYDSSLSGYVFGTGTKVTVL
B25: D021 (antibody, V domains shown)
VH: QVQLVESGGGVVQPGRSLRLSCAASGFTFSSYGMHWVRQAPGKGLEWVAVISYDGSNKYYADSVKGRFTISRDNSKNTLYLQMNSLRAEDTAVYYCAKAGQYGDYTHSGDYWGQGTLVTVSS
VL: DIQMTQSPSSLSASVGDRVTITCQASQDISNYLNWYQQKPGKAPKLLIYDASNLETGVPSRFSGSGSGTDFTFTISSLQPEDIATYYCQQYDNLPIAFGQGTRLEIK
B26: C2732 (antibody, V domains shown)
VH: EVQLVESGGGLVQPGRSLRLSCAASGFTFDDYAMHWVRQAPGKGLEWVSGISWNSGSIGYADSVKGRFTISRDNAKNSLYLQMNSLRAEDTALYYCAKDIGRIAEGYGMDVWGQGTTVTVSS
VL: QSALTQPASVSESPGQSITISCTGTSSDIGGYNYVSWYQQHPGKAPKLMIYEVSNRPSGVSNRFSGSKSGNTASLTISGLQAEDEADYYCSSYTSSSTVVFGGGTKLTVL

Each binder was assayed against SARS-CoV-2 spike RBD (WT) (Severe acute respiratory syndrome …, UniProt P0DTC2) (assay: ELISA).
Set-up: unit not given here
B1 was tested, and the binding score was over 10000.
With B2 the binding score was 9490.
Work on B3 yielded a binding score of 49.
B4 showed a binding score of over 10000.
In the case of B5, the binding score is reported as 491.
B6 gave a binding score of 5250.
With B7 the binding score was over 10000.
For B8, the binding score was over 10000.
Work on B9 yielded a binding score of 4730.
B10 showed a binding score of 39.5.
B11 was tested, and the binding score was 9930.
B12 was tested, and the binding score was over 10000.
With B13 the binding score was over 10000.
B14 showed a binding score of over 10000.
With B15 the binding score was 2500.
Work on B16 yielded a binding score of over 10000.
Work on B17 yielded a binding score of 1340.
B18 gave a binding score of over 10000.
B19 was tested, and the binding score was over 10000.
B20 was tested, and the binding score was 7780.
B21 gave a binding score of over 10000.
B22 showed a binding score of over 10000.
Work on B23 yielded a binding score of over 10000.
Binder B24 has a binding score of over 10000.
B25 showed a binding score of 4670.
Binder B26 has a binding score of 376.
